Patent US20260116990A1 (KEY2BRAIN, published 2026)

Experiments:
[1] = biological target: T1, His-tagged ectodomain of human transferrin receptor 1 (hTfR1, R121-F760) (human, UniProt P02786 121-760); test: SPR Biacore 8K single-cycle; hTfR1 amine-coupled to CM5 chip, fusion as analyte
T1 construct: Made in CHO cells; Biotinylated for some uses; also called human TfR1

[2] = biological target: T2, His-tagged ectodomain of mouse transferrin receptor 1 (mTfR1, S122-F763) (mouse, UniProt Q62351 122-763); test: ELISA on coated TfR1 ectodomain; 125I-labelled or original sample, anti-VHH detection
T2 construct: also called mouse TfR1
Experimental: Briefly, high-binding half-area 96-well plates (Costar 3690, Merck) were coated with ectodomains of hTfR1 and mTfR1 at […] (in PBS pH 7.4). and left over night at 4° C. Plates were blocked for 1 h using 1% BSA 0.05% Tween®20 (Merck) in PBS.

[3] = biological target: T1, His-tagged ectodomain of human …; test: SPR; hTfR1 captured on amine-coupled hTf, binder as analyte
Experimental: (§1) The contact time was 150 s for each concentration at […] with a final dissociation step of 500 s. […] The data with respect to the association rate constant (ka), the dissociation rate constant (kd) and the equilibrium dissociation constant (KD) was evaluated using Biacore T200 software evaluation tool applying a Langmuir 1:1 model.

[4] = biological target: T1, His-tagged ectodomain of human …; test: SPR Biacore T200 single-cycle; hTfR1 captured on amine-coupled hTf, binder as analyte; 1:1 model
Experimental: as §1

T2 sequence (Q62351 other isoform, or with tags, fused parts or gaps limits assumed): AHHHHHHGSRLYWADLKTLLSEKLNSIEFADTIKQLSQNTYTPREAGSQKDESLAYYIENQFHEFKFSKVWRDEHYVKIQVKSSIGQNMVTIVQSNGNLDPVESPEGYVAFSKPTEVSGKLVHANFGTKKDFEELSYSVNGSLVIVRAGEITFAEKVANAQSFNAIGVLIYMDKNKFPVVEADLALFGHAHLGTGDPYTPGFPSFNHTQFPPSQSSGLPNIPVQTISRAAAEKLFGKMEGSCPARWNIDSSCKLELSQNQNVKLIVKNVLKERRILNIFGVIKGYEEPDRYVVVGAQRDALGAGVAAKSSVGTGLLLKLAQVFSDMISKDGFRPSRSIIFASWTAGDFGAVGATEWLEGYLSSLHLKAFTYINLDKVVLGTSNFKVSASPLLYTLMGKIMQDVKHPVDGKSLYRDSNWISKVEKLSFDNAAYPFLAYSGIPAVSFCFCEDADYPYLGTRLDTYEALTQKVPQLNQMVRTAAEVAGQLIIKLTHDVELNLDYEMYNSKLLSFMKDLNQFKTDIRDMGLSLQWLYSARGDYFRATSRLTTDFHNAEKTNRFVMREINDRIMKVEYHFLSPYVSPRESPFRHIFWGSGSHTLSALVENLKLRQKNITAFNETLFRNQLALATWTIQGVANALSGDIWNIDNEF
T1 sequence (P02786 other isoform, or with tags, fused parts or gaps limits assumed): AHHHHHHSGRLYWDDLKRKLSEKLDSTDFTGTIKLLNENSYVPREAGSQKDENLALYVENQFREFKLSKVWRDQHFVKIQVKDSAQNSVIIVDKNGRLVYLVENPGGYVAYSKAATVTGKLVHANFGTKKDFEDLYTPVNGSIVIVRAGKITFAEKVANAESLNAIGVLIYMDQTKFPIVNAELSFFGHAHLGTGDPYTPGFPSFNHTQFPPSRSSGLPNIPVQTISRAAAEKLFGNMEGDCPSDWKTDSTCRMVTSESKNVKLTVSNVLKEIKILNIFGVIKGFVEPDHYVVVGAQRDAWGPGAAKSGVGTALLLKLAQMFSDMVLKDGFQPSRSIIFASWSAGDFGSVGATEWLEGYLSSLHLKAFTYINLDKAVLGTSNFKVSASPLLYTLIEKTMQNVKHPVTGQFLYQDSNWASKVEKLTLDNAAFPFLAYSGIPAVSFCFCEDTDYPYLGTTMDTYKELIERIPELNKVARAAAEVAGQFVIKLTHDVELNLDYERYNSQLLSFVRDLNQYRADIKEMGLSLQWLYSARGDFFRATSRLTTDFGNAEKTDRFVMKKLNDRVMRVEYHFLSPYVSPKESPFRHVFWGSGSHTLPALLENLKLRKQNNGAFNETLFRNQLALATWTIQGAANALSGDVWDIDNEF

| Binder | Kd [1] | koff [1] | kon [1] | binding result [2] | fold lower affinity (KD) than BA1 [3] | Kd [4] | koff [4] | kon [4] |
| --- | --- | --- | --- | --- | --- | --- | --- | --- |
| scFv-KB_B01 (3D6 scFv at the N-terminus of KB_B01) (bispecific antibody, also called scFv-VHH) EVKLVESGGGLVKPGASLKLSCAASGFTFSNYGMSWVRQNSDKRLEWVASIRSGGGRTYYSDNVKGRFTISRENAKNTLYLQMSSLKSEDTALYYCVRYDHYSGSSDYWGQGTTVTVSGGGGSGGGGSGGGGSYVVMTQTPLTLSVTIGQPASISCKSSQSLLDSDGKTYLNWLLQRPGQSPKRLIYLVSKLDSGVPDRFTGSGSGTDFTLKISRIEAEDLGLYYCWQGTHFPRTFGGGTKLEIKGGGGSGGGGSGGGGSQVQLQESGGGLVQAGGSLRLSCAASGTPFSNNYMRWYRQAPGKQREWVAGFTSGGSTNYADSVKGRFTISRDNAEGTVYLQMDNLKPEDTAVYYCYFLDVWGQGTQVTVSSGSENLYFQSHHHHHH | 1.8 nM | 0.000259 s⁻¹ | 144000 M⁻¹ s⁻¹ | binds | – | – | – | – |
| BV-scFv (benchmark VHH BV at the N-terminus of 3D6 scFv) (bispecific antibody) EVQLVESGGGVVQPGGSLKLSCVASGTDFSINFIRWYRQAPGKQREFVAGFTATGNTNYADSMKGRFTISRDNTKNAVYLQIDSLKPEDTAVYYCYMLDKWGQGTQVTVSSGGGGSGGGGSGGGGSEVKLVESGGGLVKPGASLKLSCAASGFTFSNYGMSWVRQNSDKRLEWVASIRSGGGRTYYSDNVKGRFTISRENAKNTLYLQMSSLKSEDTALYYCVRYDHYSGSSDYWGQGTTVTVSGGGGSGGGGSGGGGSYVVMTQTPLTLSVTIGQPASISCKSSQSLLDSDGKTYLNWLLQRPGQSPKRLIYLVSKLDSGVPDRFTGSGSGTDFTLKISRIEAEDLGLYYCWQGTHFPRTFGGGTKLEIKGSENLYFQSHHHHHH | 0.189 nM | 0.000117 s⁻¹ | 617000 M⁻¹ s⁻¹ | binds | – | – | – | – |
| KB_B01-scFv (KB_B01 at the N-terminus of 3D6 scFv) (bispecific antibody, also called VHH-scFv) QVQLQESGGGLVQAGGSLRLSCAASGTPFSNNYMRWYRQAPGKQREWVAGFTSGGSTNYADSVKGRFTISRDNAEGTVYLQMDNLKPEDTAVYYCYFLDVWGQGTQVTVSSGGGGSGGGGSGGGGSEVKLVESGGGLVKPGASLKLSCAASGFTFSNYGMSWVRQNSDKRLEWVASIRSGGGRTYYSDNVKGRFTISRENAKNTLYLQMSSLKSEDTALYYCVRYDHYSGSSDYWGQGTTVTVSGGGGSGGGGSGGGGSYVVMTQTPLTLSVTIGQPASISCKSSQSLLDSDGKTYLNWLLQRPGQSPKRLIYLVSKLDSGVPDRFTGSGSGTDFTLKISRIEAEDLGLYYCWQGTHFPRTFGGGTKLEIKGSENLYFQSHHHHHH | 0.845 nM | 0.00045 s⁻¹ | 535000 M⁻¹ s⁻¹ | binds | – | – | – | – |
| scFv-BV (3D6 scFv at the N-terminus of benchmark VHH BV) (bispecific antibody, also called scFc-BV) EVKLVESGGGLVKPGASLKLSCAASGFTFSNYGMSWVRQNSDKRLEWVASIRSGGGRTYYSDNVKGRFTISRENAKNTLYLQMSSLKSEDTALYYCVRYDHYSGSSDYWGQGTTVTVSGGGGSGGGGSGGGGSYVVMTQTPLTLSVTIGQPASISCKSSQSLLDSDGKTYLNWLLQRPGQSPKRLIYLVSKLDSGVPDRFTGSGSGTDFTLKISRIEAEDLGLYYCWQGTHFPRTFGGGTKLEIKGGGGSGGGGSGGGGSEVQLVESGGGVVQPGGSLKLSCVASGTDFSINFIRWYRQAPGKQREFVAGFTATGNTNYADSMKGRFTISRDNTKNAVYLQIDSLKPEDTAVYYCYMLDKWGQGTQVTVSSGSENLYFQSHHHHHH | 0.698 nM | 0.000122 s⁻¹ | 175000 M⁻¹ s⁻¹ | binds | – | – | – | – |
| KB_B01 monomeric VHH with C-terminal 6xHis tag and C-tag (VHH, Single VHH unit from the E. coli periplasm) VHH: QVQLQESGGGLVQAGGSLRLSCAASGTPFSNNYMRWYRQAPGKQREWVAGFTSGGSTNYADSVKGRFTISRDNAEGTVYLQMDNLKPEDTAVYYCYFLDVWGQGTQVTVSS | – | – | – | – | 166 fold | 3.31 nM | 0.00198 s⁻¹ | 597000 M⁻¹ s⁻¹ |
